Data as given in patent EP4803549A1 (Leads Biolabs Inc., dated 2026).

T1: human BCMA-His protein (ACRO, Cat#: BCA-H522y) (human, UniProt Q02223 1-54)
T1 construct: Bought protein; also called Human BCMA protein; huBCMA-his
T1 sequence: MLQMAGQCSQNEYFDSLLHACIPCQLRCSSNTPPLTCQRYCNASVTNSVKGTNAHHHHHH

T2: human BCMA protein expressed on the cell surface (human, UniProt Q02223 1-184)
T2 construct: whole, on cells; also called CHO-K1-huBCMA; CHOK1-huBCMA
T2 sequence (looked up): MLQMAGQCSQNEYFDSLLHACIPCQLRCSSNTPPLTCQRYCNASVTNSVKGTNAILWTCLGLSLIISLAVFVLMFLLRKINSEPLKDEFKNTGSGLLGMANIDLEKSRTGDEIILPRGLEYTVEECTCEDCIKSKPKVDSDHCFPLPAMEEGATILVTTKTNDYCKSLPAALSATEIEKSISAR

B1: BH56-IgG (antibody, V domains shown)
VH: EVQVVESGGGLVQAGESLTLSCAASGFTFAPSAMSWARQPPGKEVEWVSGIYGDGRTTYADSVKGRFTISRDNAKKTVTLQMNNLEPEDSGNYICVVGIRLLSESWAQALRGQGTQVTVSS
notes: also called anti-human BCMA chimeric antibody
B2: huHA68-4-IgG (antibody, V domains shown)
VH: EVQLVETGGGLIQPGGSLRLSCAASGFTFSPSAMSWARQAPGKGLEWVSGIYGDGKAEYADSVKGRFTISRDNSKNTVYLQMNSLRAEDTAVYSCAVGIRPTDAPWAASLRGQGTLVTVSS
notes: Humanized VHH-Fc heavy-chain antibody
B3: HA68-IgG (antibody, V domains shown)
VH: QVQLVETGGGLVQPGGSLRLSCAASGFTFSPSAMNWARQAPGKGLEWVAGIYGDGKAEYADSVKGRFTISRDNAKNMVYLQMVNLRPEDTAVYSCAVGIRPTDAPWAASLRGQGTQVTVSS
notes: as for B1
B4: huHA68-3-IgG (antibody, V domains shown)
VH: EVQLVETGGGLIQPGGSLRLSCAASGFTFSPSAMSWARQAPGKGLEWVSGIYGDGKAEYADSVKGRFTISRDNSKNTVYLQMNSLRAEDTAVYYCAVGIRPTDAPWAASLRGQGTLVTVSS
notes: as for B2
B5: 269B094 (a fully human monoclonal antibody targeting BCMA) (antibody, V domains shown)
VH: DVQLVESGGGLVQPGGSLRLSCAASGRTFSSIVMGWFRQAPGKEREFVGAIMWNDGITYLQDSVKGRFTIFRDNAKNTVYLQMNSLKLEDTAVYYCAASKGRYSEYEYWGQGTQVTVSS
notes: also called control antibody; control sample
B6: huBH56-3-IgG (antibody, V domains shown)
VH: EVQVVESGGGLIQPGGSLRLSCAASGFTFAPSAMSWARQPPGKEVEWVSGIYGDGRTTYADSVKGRFTISRDNSKNTVYLQMNSLRAEDTAVYYCVVGIRLLSESWAQALRGQGTQVTVSS
notes: Humanized VHH-Fc heavy-chain antibody; Fc with L234A, L235A, D265A, P329A
B7: huBH56-6-IgG (antibody, V domains shown)
VH: EVQLVESGGGLIQPGGSLRLSCAASGFTFAPSAMSWARQPPGKGLEWVSGIYGDGRTYYADSVKGRFTISRDNSKNTVYLQMNSLRAEDTAVYYCVVGIRLLSESWAQALRGQGTQVTVSS
notes: as for B2
B8: huBH56-5-IgG (antibody, V domains shown)
VH: EVQVVESGGGLIQPGGSLRLSCAASGFTFAPSAMSWARQPPGKEVEWVSGIYGDGRTTYADSVKGRFTISRDNSKNTVYLQMNSLRAEDTAVYICVVGIRLLSESWAQALRGQGTQVTVSS
notes: as for B2
B9: huBH56-4-IgG (antibody, V domains shown)
VH: EVQLVESGGGLIQPGGSLRLSCAASGFTFAPSAMSWARQPPGKEVEWVSGIYGDGRTYYADSVKGRFTISRDNSKNTVYLQMNSLRAEDTAVYYCVVGIRLLSESWAQALRGQGTQVTVSS
notes: as for B2
B10: humanized anti-GPRC5D VHH-Fc antibody 8H5 (antibody, human IgG1, V domains shown)
VH: EVQLLESGGGLVQPGGSLRLSCAASGIFLSASVMSWYRQAPGKQRELVASMLNSNTNYADSVKGRFTISRDNSKNTMYLQMNSLRAEDTAVYYCNAERSGVYWGQGTQVTVSS
notes: also called hu8H5; humanized anti-GPRC5D VHH 8H5-Fc
B11: 2xhuHA68-4-CD3ScFv (bispecific antibody)
heavy 1: EVQLVETGGGLIQPGGSLRLSCAASGFTFSPSAMSWARQAPGKGLEWVSGIYGDGKAEYADSVKGRFTISRDNSKNTVYLQMNSLRAEDTAVYSCAVGIRPTDAPWAASLRGQGTLVTVSSGGGGSEVQLVETGGGLIQPGGSLRLSCAASGFTFSPSAMSWARQAPGKGLEWVSGIYGDGKAEYADSVKGRFTISRDNSKNTVYLQMNSLRAEDTAVYSCAVGIRPTDAPWAASLRGQGTLVTVSSEPKSSDKTHTCPPCPAPEAAGGPSVFLFPPKPKDTLMISRTPEVTCVVVAVSHEDPEVKFNWYVDGVEVHNAKTKPREEQYNSTYRVVSVLTVLHQDWLNGKEYKCKVSNKALAAPIEKTISKAKGQPREPQVCTLPPSRDELTKNQVSLSCAVKGFYPSDIAVEWESNGQPENNYKTTPPVLDSDGSFFLVSKLTVDKSRWQQGNVFSCSVMHEALHNHYTQKSLSLSPGK
heavy 2: not shown
notes: HC1 carries two huHA68-4 VHHs in tandem (GGGGS linker) on Fc hole; HC2 is CD3ScFv-knob; also called anti-CD3/BCMA bispecific antibody; diabody
B12: 2xhuBH56-3-CD3ScFv (bispecific antibody)
heavy 1: EVQVVESGGGLIQPGGSLRLSCAASGFTFAPSAMSWARQPPGKEVEWVSGIYGDGRTTYADSVKGRFTISRDNSKNTVYLQMNSLRAEDTAVYYCVVGIRLLSESWAQALRGQGTQVTVSSGGGGSEVQVVESGGGLIQPGGSLRLSCAASGFTFAPSAMSWARQPPGKEVEWVSGIYGDGRTTYADSVKGRFTISRDNSKNTVYLQMNSLRAEDTAVYYCVVGIRLLSESWAQALRGQGTQVTVSSEPKSSDKTHTCPPCPAPEAAGGPSVFLFPPKPKDTLMISRTPEVTCVVVAVSHEDPEVKFNWYVDGVEVHNAKTKPREEQYNSTYRVVSVLTVLHQDWLNGKEYKCKVSNKALAAPIEKTISKAKGQPREPQVCTLPPSRDELTKNQVSLSCAVKGFYPSDIAVEWESNGQPENNYKTTPPVLDSDGSFFLVSKLTVDKSRWQQGNVFSCSVMHEALHNHYTQKSLSLSPGK
heavy 2: not shown
notes: HC1 carries two huBH56-3 VHHs in tandem (GGGGS linker) on Fc hole; HC2 is CD3ScFv-knob; also called anti-CD3/BCMA bispecific antibody; diabody
B13: huBH56-3-CD3ScFv (bispecific antibody)
heavy 1: EVQVVESGGGLIQPGGSLRLSCAASGFTFAPSAMSWARQPPGKEVEWVSGIYGDGRTTYADSVKGRFTISRDNSKNTVYLQMNSLRAEDTAVYYCVVGIRLLSESWAQALRGQGTQVTVSSEPKSSDKTHTCPPCPAPEAAGGPSVFLFPPKPKDTLMISRTPEVTCVVVAVSHEDPEVKFNWYVDGVEVHNAKTKPREEQYNSTYRVVSVLTVLHQDWLNGKEYKCKVSNKALAAPIEKTISKAKGQPREPQVCTLPPSRDELTKNQVSLSCAVKGFYPSDIAVEWESNGQPENNYKTTPPVLDSDGSFFLVSKLTVDKSRWQQGNVFSCSVMHEALHNHYTQKSLSLSPGK
heavy 2: not shown
notes: HC1 huBH56-3-hole (VHH, EPKSS, Fc hole); HC2 CD3ScFv-knob (CD3 VH, linker, CD3 VL, EPKSS, Fc knob); also called anti-CD3/BCMA bispecific antibody; diabody
B14: huHA68-4-CD3ScFv (bispecific antibody)
heavy 1: EVQLVETGGGLIQPGGSLRLSCAASGFTFSPSAMSWARQAPGKGLEWVSGIYGDGKAEYADSVKGRFTISRDNSKNTVYLQMNSLRAEDTAVYSCAVGIRPTDAPWAASLRGQGTLVTVSSEPKSSDKTHTCPPCPAPEAAGGPSVFLFPPKPKDTLMISRTPEVTCVVVAVSHEDPEVKFNWYVDGVEVHNAKTKPREEQYNSTYRVVSVLTVLHQDWLNGKEYKCKVSNKALAAPIEKTISKAKGQPREPQVCTLPPSRDELTKNQVSLSCAVKGFYPSDIAVEWESNGQPENNYKTTPPVLDSDGSFFLVSKLTVDKSRWQQGNVFSCSVMHEALHNHYTQKSLSLSPGK
heavy 2: not shown
notes: HC1 huHA68-4-hole; HC2 CD3ScFv-knob; also called anti-CD3/BCMA bispecific antibody; diabody

Molecular target: T1, human BCMA-His protein (ACRO, Cat#: …)
Assay: BLI (ForteBio Octet RED96e), antibody on AHC sensor, 100 nM human BCMA-His, 1:1 model

Row | Binder | Kd [pM] | koff [s⁻¹] | kon [M⁻¹ s⁻¹]
1 | B1 | < 1 | < 1e-07 | 1e+06
2 | B2 | < 1 | < 1e-07 | 1e+06
3 | B3 | < 1 | < 1e-07 | 1e+06
4 | B4 | < 1 | < 1e-07 | 1e+06
5 | B5 | 1510 | 0.00155 | 1e+06
6 | B6 | < 1 | < 1e-07 | 1e+06
7 | B7 | < 1 | < 1e-07 | 979000
8 | B8 | < 1 | < 1e-07 | 1e+06
9 | B9 | < 1 | < 1e-07 | 1e+06

Molecular target: T3, human GPRC5D protein expressed on the cell surface (human, UniProt Q9NZD1 1-345)
T3 construct: NP_061124.1 (NCBI) and Q9NZD1 (UniProt) are printed; also called CHO-K1-huGPRC5D
Assay: flow cytometry on 293T-huGPRC5D cells

T3 sequence (Q9NZD1 whole entry): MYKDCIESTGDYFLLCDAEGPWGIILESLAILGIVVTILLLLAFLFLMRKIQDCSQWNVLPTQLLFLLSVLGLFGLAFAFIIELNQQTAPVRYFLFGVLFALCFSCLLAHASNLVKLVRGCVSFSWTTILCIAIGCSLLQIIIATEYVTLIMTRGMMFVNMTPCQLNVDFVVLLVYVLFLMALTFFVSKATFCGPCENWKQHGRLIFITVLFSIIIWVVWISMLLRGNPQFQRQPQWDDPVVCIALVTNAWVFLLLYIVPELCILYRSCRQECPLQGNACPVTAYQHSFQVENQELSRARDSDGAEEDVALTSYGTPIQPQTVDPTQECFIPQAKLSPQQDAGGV

Row | Binder | binding result
10 | B10 | binds

Molecular target: T2, human BCMA protein expressed on the …
Assay: flow cytometry on CHOK1-huBCMA cells

Row | Binder | binding result
11 | B11 | binds
12 | B12 | binds
13 | B13 | binds
14 | B14 | binds
